The record followed here is article PMC3514788 (The Journal of Cell Biology, 2012).

B1: GST-Nup116 fragment from the N terminus to residue 172 (domain or fragment)
chain: MFGVSRGAFPSATTQPFGSTGSTFGGQQQQQQPVANTSAFGLSQQTNTTQAPAFGNFGNQTSNSPFGMSGSTTANGTPFGQSQLTNNNASGSIFGGMGNNTALSAGSASVVPNSTAGTSIKPFTTFEEKDPTTGVINVFQSITCMPEYRNFSFEELRFQDYQAGRKFGTSQN
B2: Drg1 (enzyme)
chain: MAPKSSSSGSKKKSSASSNSADAKASKFKLPAEFITRPHPSKDHGKETCTAYIHPNVLSSLEINPGSFCTVGKIGENGILVIARAGDEEVHPVNVITLSTTIRSVGNLILGDRLELKKAQVQPPYATKVTVGSLQGYNILECMEEKVIQKLLDDSGVIMPGMIFQNLKTKAGDESIDVVITDASDDSLPDVSQLDLNMDDMYGGLDNLFYLSPPFIFRKGSTHITFSKETQANRKYNLPEPLSYAAVGGLDKEIESLKSAIEIPLHQPTLFSSFGVSPPRGILLHGPPGTGKTMLLRVVANTSNAHVLTINGPSIVSKYLGETEAALRDIFNEARKYQPSIIFIDEIDSIAPNRANDDSGEVESRVVATLLTLMDGMGAAGKVVVIAATNRPNSVDPALRRPGRFDQEVEIGIPDVDARFDILTKQFSRMSSDRHVLDSEAIKYIASKTHGYVGADLTALCRESVMKTIQRGLGTDANIDKFSLKVTLKDVESAMVDIRPSAMREIFLEMPKVYWSDIGGQEELKTKMKEMIQLPLEASETFARLGISAPKGVLLYGPPGCSKTLTAKALATESGINFLAVKGPEIFNKYVGESERAIREIFRKARSAAPSIIFFDEIDALSPDRDGSSTSAANHVLTSLLNEIDGVEELKGVVIVAATNRPDEIDAALLRPGRLDRHIYVGPPDVNARLEILKKCTKKFNTEESGVDLHELADRTEGYSGAEVVLLCQEAGLAAIMEDLDVAKVELRHFEKAFKGIARGITPEMLSYYEEFALRSGSSS

Data set [1] addresses GST-Rlp24C (S. cerevisiae) (UniProt Q07915). As to the kind of experiment: SPR. For orientation: Surface plasmon resonance follows binding to a sensor surface in real time, without labels.
The target in data set [2] is B2. Briefly: pull-down.
Data set [3] concerns the molecule itself.

Chain of GST-Rlp24C (S. cerevisiae) (Q07915 147-199): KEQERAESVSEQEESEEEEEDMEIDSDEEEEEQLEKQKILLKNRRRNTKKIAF

Turning to “Drg1EQ1 (from UniProt P32794 1-780) (enzyme)”, in data set [1], the fold RU against the wild-type and EQ2 proteins amounted to 4 fold; the kon2 (two-state reaction) came to 0.011 s⁻¹. Consider B1, for which the binding result in data set [2] is on record as “binds”. In general, stoichiometry N refers to a count of units in the complex or per binding partner. B2: the “stoichiometry N” value in data set [3] worked out at 6.
